The values below are quoted from earlier work in article PMC10561060.

The data set has as its target chemoreceptor C-terminal pentapeptide (Escherichia coli). Description: ITC.

For orientation: Kd means the equilibrium constant for the complex coming apart. CheB (from UniProt P07330): the Kd is 160 µM.
Consider CheR (from UniProt P07364), for which the Kd was 2 µM.
